Patent US20230235029A1 (INTEGRATED BIOTHERAPEUTICS, published 2023)
Residue numbers refer to the chain shown, from its start.

T1: Marburg virus Angola GP on rVSV pseudotype (Marburg virus, Angola strain, UniProt Q1PD50 19-681)
T1 sequence: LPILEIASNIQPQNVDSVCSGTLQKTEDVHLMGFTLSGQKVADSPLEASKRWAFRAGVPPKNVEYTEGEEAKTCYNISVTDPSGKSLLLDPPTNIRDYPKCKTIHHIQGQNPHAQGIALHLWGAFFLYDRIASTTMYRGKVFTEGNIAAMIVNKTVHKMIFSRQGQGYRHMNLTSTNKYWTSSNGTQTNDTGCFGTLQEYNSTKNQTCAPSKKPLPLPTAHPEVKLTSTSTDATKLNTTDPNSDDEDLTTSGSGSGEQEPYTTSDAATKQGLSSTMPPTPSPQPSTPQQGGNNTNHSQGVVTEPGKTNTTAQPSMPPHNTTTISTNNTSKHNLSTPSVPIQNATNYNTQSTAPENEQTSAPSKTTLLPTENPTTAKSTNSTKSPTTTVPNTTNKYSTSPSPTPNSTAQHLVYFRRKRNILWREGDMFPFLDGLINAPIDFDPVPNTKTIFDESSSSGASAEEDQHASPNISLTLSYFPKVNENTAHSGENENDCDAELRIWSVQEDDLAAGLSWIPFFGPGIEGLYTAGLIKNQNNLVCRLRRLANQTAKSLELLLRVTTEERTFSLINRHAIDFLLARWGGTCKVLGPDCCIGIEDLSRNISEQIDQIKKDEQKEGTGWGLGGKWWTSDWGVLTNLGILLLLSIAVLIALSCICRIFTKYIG

T2: RAVV GP on rVSV pseudotype (VSV-MARV RAVV GP) (Ravn virus, UniProt Q1PDC7 19-681)
T2 sequence: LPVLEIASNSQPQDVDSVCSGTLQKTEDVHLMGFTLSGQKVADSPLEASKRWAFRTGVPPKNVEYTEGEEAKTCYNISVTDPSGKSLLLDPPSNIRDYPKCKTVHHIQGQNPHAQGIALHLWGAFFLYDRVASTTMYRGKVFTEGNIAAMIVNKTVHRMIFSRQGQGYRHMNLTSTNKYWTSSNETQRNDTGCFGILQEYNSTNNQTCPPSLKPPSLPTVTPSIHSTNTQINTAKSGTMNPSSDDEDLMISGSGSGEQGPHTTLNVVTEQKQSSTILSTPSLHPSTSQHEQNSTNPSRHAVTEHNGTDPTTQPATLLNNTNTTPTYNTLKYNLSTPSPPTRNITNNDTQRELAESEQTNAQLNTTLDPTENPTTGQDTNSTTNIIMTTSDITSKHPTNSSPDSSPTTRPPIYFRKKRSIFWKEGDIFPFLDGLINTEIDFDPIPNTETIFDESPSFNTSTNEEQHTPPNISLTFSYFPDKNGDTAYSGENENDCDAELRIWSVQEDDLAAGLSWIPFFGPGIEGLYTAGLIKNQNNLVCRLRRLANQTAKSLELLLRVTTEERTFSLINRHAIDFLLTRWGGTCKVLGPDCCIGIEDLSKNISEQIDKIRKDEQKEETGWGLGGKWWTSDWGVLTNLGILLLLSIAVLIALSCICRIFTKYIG

T3: Marburg virus Musoke GP on rVSV pseudotype (VSV-MARV Musoke GP) (Marburg virus, Musoke strain, UniProt P35253 19-681)
T3 sequence: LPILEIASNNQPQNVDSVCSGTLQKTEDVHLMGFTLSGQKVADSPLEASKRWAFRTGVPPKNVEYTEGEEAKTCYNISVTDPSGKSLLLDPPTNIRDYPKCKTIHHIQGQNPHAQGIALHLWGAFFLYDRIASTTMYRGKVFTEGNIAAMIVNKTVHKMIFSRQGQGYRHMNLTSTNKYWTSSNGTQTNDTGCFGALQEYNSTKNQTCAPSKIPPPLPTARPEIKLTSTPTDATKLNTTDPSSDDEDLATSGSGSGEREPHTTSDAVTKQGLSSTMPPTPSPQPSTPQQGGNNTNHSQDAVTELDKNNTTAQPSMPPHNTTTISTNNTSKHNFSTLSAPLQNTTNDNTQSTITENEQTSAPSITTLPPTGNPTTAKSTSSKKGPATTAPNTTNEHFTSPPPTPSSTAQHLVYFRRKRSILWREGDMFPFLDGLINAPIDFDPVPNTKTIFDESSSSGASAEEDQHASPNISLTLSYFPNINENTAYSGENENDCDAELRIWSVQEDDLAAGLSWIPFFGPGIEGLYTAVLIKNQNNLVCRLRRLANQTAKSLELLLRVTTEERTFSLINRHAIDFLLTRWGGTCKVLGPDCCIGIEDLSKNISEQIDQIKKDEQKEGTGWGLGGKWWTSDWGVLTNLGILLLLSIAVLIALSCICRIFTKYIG

B1: R13 (antibody, V domains shown)
VH: EVQLVESGAGLVQPGGSLRLSCAASGFTFSNSWMTWVRQAPGKGLEWLARIKRKADGETADYAASVKGRFTISRDDSKNTLYLQMNSLKTEDTAVYYCTTYNWNFNFDFWGQGVLVTVSS
VL: DIQMTQSPSSLSASVGDRVTITCRASQDISPYLNWYQQKPGKAPKLLIYYGNRLESGVPSRFSGSGSGTDLTLTISSLQPEDFATYYCQQYYRLPLTFGGGTKVETK
B2: R24 (antibody, V domains shown)
VH: B1 VH with A24G, S32T, L48V, N79S, F109Y
VL: B1 VL with T106S
B3: R25 (antibody, V domains shown)
VH: B1 VH with L48V, A49G, F109H
VL: B1 VL with T106I
B4: R29 (antibody, V domains shown)
VH: B1 VH with A23I, K43R, L48I, F109Y
VL: B1 VL with T106I
B5: R39 (antibody, V domains shown)
VH: B1 VH with A24G, S32T, L48V, F109Y
VL: B1 VL with T106I
B6: R45 (antibody, V domains shown)
VH: EVQLVESGGGLAKPGGSLRLSCAASGFTFGDHWMSWVRQAPGNGLQWISAIDRAGGSTFYADSVKGRFTISRENAKNTLYLQIDSLRPEDTAVYFCARDQGRTVGYLDYWGQGVLVTVSS
VL: QSALTQPRSVSGSPGQSVTISCTGTSSDIGSYTYVSWYRQHPGTAPKLIIYDVDERPSGVSYRFSGSKSGNTASLTISGLQAEDEADYYCSSYAGRNTWVFGGGTRLTVL
B7: R50 (antibody, V domains shown)
VH: QVQLQESGPGLVKPSETLSLTCAVSGDSISSYWWNWIRQPPGKGLEWIGEIYGYSGSTNYNASLKSRVTISKDASKKQLSLKLSSVTAADTAVYYCARDPLNQDAFDFWGLGLRVTVSS
VL: QSALTQPPSVSGSPGQSVTISCTGTSSDIGGYTYVSWYQQHPGKAPKLMIYDVSRRPSGVSDRFSGSKSGNTASLTISGLQAEDEADYYCSSYAGRNALLFGGGTRLTVL
B8: R53 (antibody, V domains shown)
VH: B7 VH with D27A, N59Y, N61S, A62P, K77N, L79F, V86A, A97V, L111Q
VL: B7 VL with G31S, T33D, I50M, R55K, S61F, E83D, D87A, Y89F, N97R, A98I
B9: R55 (antibody, V domains shown)
VH: B7 VH with A62P
VL: B7 VL
B10: R63 (antibody, V domains shown)
VH: QVQLQESGPGLVKASETLSLTCAVSGASISSYWWNWIRLSPGKGLEWIGEIYGYSGSTSYNSSLKSRVSISRDASKNQFSLKLSSVTAADTAVYYCARDPLNHDAFDFWGRGFRVTVSS
VL: B7 VL with T23A, S54N, R55E, R96S, N97K, A98T, L99V, L100S, T108S
B11: R64 (antibody, V domains shown)
VH: B7 VH with D27A, I29M, S31D, T58S, N59Y, A62P, T69S
VL: QSALTQPPSVSGSPGLSVTISCTGSGSDIGGYDYVSWYQQHPGKAPKLMIYGVNKRPSGVSDRFSGSKSGNTASLSISGLQAEDEADYYCSSYAGSHTLLFGGGSRLTVL
B12: R15 (antibody, V domains shown)
VH: B1 VH with Q13R, S32T, K43R, N79H, Y82F, F109N
VL: B1 VL with D28A, I29F, P31S, G51A, G66E, D70E, L71F, T106I
B13: R79 (antibody, V domains shown)
VH: EVQLVESGGGLAKPGGSLRLSCAASGFTFNDYWLFWVRQAPGRGLEWISTINRPGSSTFYADSVKGRFTISRENANNALYLQMDSLRPEDTAVYYCARDQGRTVGYLDYWGQGVLVTVSS
VL: B6 VL with T33S, R39Q, V53D, D54S, Y62D, R96S
B14: R80 (antibody, V domains shown)
VH: B13 VH
VL: B6 VL with T33S, R39Q, V53D, D54S, Y62D, R96S
B15: R83 (antibody, V domains shown)
VH: B7 VH with D27A, S31D, N59Y, A62P, K82R, S84T, V93I
VL: B7 VL with V35I, H41Y, R55K, I77V, A94G, N97K, A98T
B16: R18 (antibody, V domains shown)
VH: B10 VH with N61K, S84T, F113L
VL: B7 VL with T23A, S54N, R55E, K68I, R96S, N97K, A98T, L99V, T108S

Columns and labels:
[1] = biological target: Marburg virus Angola GP on rVSV pseudotype (Marburg virus, Angola strain) (UniProt Q1PD50)
[2] = biological target: Marburg virus Musoke GP on rVSV pseudotype (VSV-MARV Musoke GP) (Marburg virus, Musoke strain) (UniProt P35253)
[3] = biological target: RAVV GP on rVSV pseudotype (VSV-MARV RAVV GP) (Ravn virus) (UniProt Q1PDC7)
[4] = biological target: T1, Marburg virus Angola GP on rVSV …; assay: cell-based or functional assay
[5] = biological target: T2, RAVV GP on rVSV pseudotype (VSV-MARV …); assay: cell-based or functional assay
[6] = biological target: T3, Marburg virus Musoke GP on rVSV …; assay: cell-based or functional assay

Row | Molecule | NT50 [1] [µg/mL] | NT50 [2] [µg/mL] | NT50 [3] [µg/mL] | NT50 [4] [µg/mL] | NT50 [5] [µg/mL] | NT50 [6] [µg/mL]
1 | MR191 (antibody) | 3.81 | 2.77 | 7 |  |  | 
2 | B1 |  |  |  | 0.03 | 0.07 | 0.03
3 | B2 |  |  |  | 0.04 | 0.06 | 0.03
4 | B3 |  |  |  | 0.03 | 0.04 | 0.01
5 | B4 |  |  |  | 0.02 | 0.03 | 0.02
6 | B5 |  |  |  | 0.03 | 0.07 | 0.04
7 | B6 |  |  |  | 0.1 | 0.27 | 0.1
8 | B7 |  |  |  | 0.05 | 0.21 | 0.06
9 | B8 |  |  |  | 0.02 | 0.07 | 0.02
10 | B9 |  |  |  | 0.07 | 0.24 | 0.07
11 | B10 |  |  |  | 0.04 | 0.17 | 0.05
12 | B11 |  |  |  | 0.02 | 0.09 | 0.03
13 | B12 |  |  |  | 0.04 | 0.08 | 0.03
14 | B13 |  |  |  | 0.21 | 0.45 | 0.17
15 | B14 |  |  |  | 0.26 | 0.3 | 0.21
16 | B15 |  |  |  | 0.03 | 0.17 | 0.05
17 | B16 |  |  |  | 0.04 | 0.18 | 0.09
